Measurements published in paper PMC9239997, “Structural basis for mitoguardin-2 mediated lipid transport at ER-mitochondrial membrane contact sites” (Nature Communications, 2022).

B1: mouse MIGA2 residues 275-570, wild type [mouse (Mus musculus)] / MSP domain of mouse VAPB (residues 1-125) fused to GST [mouse (Mus musculus)] (parent complex)
chain 1: GSLRLRADDEDSLTSEDSFFSATEIFESLQIGEYPLPLSRPAAAYEEALQLVKEGRVPCRTLRTELLGCYSDQDFLAKLHCVRQAFEGLLEERSNQIFFGEVGRQMVTGLMTKAEKSPKGFLESYEEMLSYALRPETWATTRLELEGRGVACMSFFDIVLDFILMDAFEDLENPPSSVLAVLRNRWLSDSFKETALATACWSVLKAKRRLLMVPDGFISHFYSVSEHVSPVLAFGFLGPKPQLSEVCAFFKHQIVQYLRDMFDLDNVRYTSVPALAEDILQLSRRRSEILLGYLGA
chain 2: MAKVEQVLSLEPQHELKFRGPFTDVVTTNLKLGNPTDRNVCFKVKTTVPRRYCVRPNSGVIDAGASLNVSVMLQPFDYDPNEKSKHKFMVQSMFAPPDTSDMEAVWKEAKPEDLMDSKLRCVFEL

Variants of: B1
Assay: GST pull-down; parent: 0.01; read off a plot
In the case of chain 1 S18E, chain 1 S21D, the screen value is reported as about 1.
With chain 1 S18E the screen value was about 0.01.
chain 1 S21D showed a screen value of about 0.4.
